Measured values as given in paper PMC6318248, “Oligomerisation of Synaptobrevin-2 Studied by Native Mass Spectrometry and Chemical Cross-Linking” (Journal of the American Society for Mass Spectrometry, 2018).
Values joined by “and” are separate entries in the source; they are usually repeats but may differ in a detail not shown here. Identical values can stand only once. Like-named read-outs stand apart in the source and are kept apart here. Each block holds one molecule with its values, some of them ahead of it.

Legend:
[1] = biological target: Synaptobrevin-2, full-length protein Syb(1-116) (Rattus norvegicus) (UniProt P63045); assay: cross-linking; Syb(1-116) in solution (chaps), 10 μM and 100 μM protein, BS3 (83-166 μM at 100 μM protein), 1 h at 25 °C; Coomassie gel and western blot; cross-linked peptides by LC-MS/MS
[2] = biological target: Synaptobrevin-2, full-length protein Syb(1-116) (Rattus norvegicus) (UniProt P63045); assay: as above; remark: listed apart in the source
[3] = biological target: the molecule itself; assay: native MS; Syb(49-96) at 10 μM, 200 mM ammonium acetate pH 7.0
[4] = biological target: the molecule itself; assay: ion mobility mass spectrometry; Syb(49-96), nESI, home-built drift-tube instrument, helium buffer gas, soft conditions; limited transmission for high m/z
[5] = biological target: the molecule itself; assay: cross-linking; 650 μM Syb(49-96), 180 and 250 μM BS3, 1 h at 25 °C; Coomassie gel and western blot; cross-linked peptides by LC-MS/MS

stoichiometry N [1]: < 6 | stoichiometry N [2]: 2 and < 5
Molecule: Synaptobrevin-2, full-length protein Syb(1-116) (from UniProt P63045 1-116) (natural protein)

B1: Synaptobrevin-2, C-terminal fragment of the cytosolic domain Syb(49-96) (domain or fragment, Rattus norvegicus, UniProt P63045 49-96, looked up)
chain: NVDKVLERDQKLSELDDRADALQAGASQFETSAAKLKRKYWWKNLKMM
notes: Synaptobrevin-2, Rattus norvegicus, UniProt P63045, residues 49-96 (C-terminal half of the SNARE motif and the juxtamembrane domain); Residual residues of the thrombin cleavage site stay at the N-terminus (measured mass 6045 Da); Plasmid was a gift from R. Jahn; source: E. coli BL21 (DE3), purified (Ni2+ IMAC, thrombin cleavage, reversed IMAC, SEC without detergent); not shown: His-tag, …
stoichiometry N [3]: 2 | stoichiometry N [4]: ≤ 3 | stoichiometry N [5]: ≤ 10
